Laboratory results from article PMC8038987, “An unusual thioredoxin system in the facultative parasite Acanthamoeba castellanii” (Cellular and Molecular Life Sciences: CMLS, 2021).

Tests used:
Assay type in all cases: biochemical, Acanthamoeba castellanii
[1] = substrate: NC(=O)C1=CN([C@@H]2O[C@H](COP(=O)(O)OP(=O)(O)OC[C@H]3O[C@@H](n4cnc5c(N)ncnc54)[C@H](OP(=O)(O)O)[C@@H]3O)[C@@H](O)[C@H]2O)C=CC1; assay: Trx-1-dependent DTNB reduction, A412; conditions: 10 µg/ml Trx-1, 1 mM DTNB, 1 µg/ml (31 nM) TrxR-S, 100 mM potassium phosphate pH 6.8, 21-23 °C
Source text: Trx-1-dependent DTNB reduction, A412 on Ac TrxR-S

[2] = substrate: NC(=O)C1=CN([C@@H]2O[C@H](COP(=O)(O)OP(=O)(O)OC[C@H]3O[C@@H](n4cnc5c(N)ncnc54)[C@H](OP(=O)(O)O)[C@@H]3O)[C@@H](O)[C@H]2O)C=CC1; assay: GSH-dependent DTNB reduction, A412; conditions: 1 mM GSSG, 11 nM GR, 100 mM Tris pH 7.5
Source text: GSH-dependent DTNB reduction, A412 on Ac GR

[3] = substrate: C[S+]([O-])CCC(N)C(=O)O; assay: coupled NADPH oxidation via TrxR-S and Trx-1, A340; conditions: 610 nM MsrA, 1.9 µM Trx-1, Ac TrxR-S, 0.2 mM NADPH
Source text: coupled NADPH oxidation via TrxR-S and Trx-1, A340 on MsrA

B1: Ac TrxR-S (Acanthamoeba castellanii str. Neff) (protein)
chain: MESKVHRMVIVGSGPAGHTAAIYAARANLEPVMYEGWMAGGVASGGQLTTTTDVENFPGFPEGVGGIDLTDNMRKQSERFGTVIIPKTITKADLSSRPFKLWVEGEEEGEPAAQAHSLIIATGATARRLAVPGEETFWQKGVSACAVCDGALPLFRNKPLAVVGGGDSACEEASWLSKFGSKVYLIHRRDELRASKIMAQRVLSNPKIEMVWNSAVEEIYGEKLVTGLKIKNVSTGDITDLPVSGLFWAIGHVPNTQFLNGQVETDAEGYIKTTPGSTVTSVEGVFAAGDVQDKRYRQAITAAGTGCMAALDAEHWLSAHL
notes: full-length from cDNA, 321 aa, C-terminal 6xHis, pET-17b, E. coli BL21-AI, Ni-NTA
Km [1]: 4 µM
Vmax [1]: 2.96 µmol/min/mg
kcat [1]: 1.7 s⁻¹

B2: Ac GR (Acanthamoeba castellanii str. Neff) (protein)
chain: MESAKSTYDFDLFVLGAGSGGVRASRISAKAGARVAIAEESRVGGTCVIRGCIPKKLLVYASHFSGDFEDSRNFGWSVDVKGFDWKKLIDNKDKEIDRLNGIYKNLLAGSGVKLIEGRATLVDAHTVKVGDATYTAENILVAVGSWPWVPTIPGIEHAITSNEALELQELPKHAIIVGAGYIACEFATIFSGCGAKVTQIFRKPYVLTGFDNDVQLAVMDEGKKQGINFMPSTQVTAIEKTDAGYVCQLDNGQTVTGDVVMYATGRVPNSANLGLENAGVKIDQQGAIVVDEWSRTSVPSIYAVGDITNRINLTPVALAEGHALADTLYNNLPRTADHTNVPSAVFTSPPVSCVGYTETQARQVYGEIDVYVSKFTPLRHTLSKRDEKTFMKLIVDRKTDRVVGAHMVGADAPEIIQGVAIAVKCGATKKQFDSTVGLHPSAAEEFVTMRTKRE
notes: full-length from cDNA, 454 aa, C-terminal 6xHis, expressed in Giardia lamblia WB C6, Ni-NTA; eluate also contained G. lamblia proteins
Km [2]: 9 µM

B3: MsrA (Acanthamoeba castellanii str. Neff) (protein)
chain: MTETATFGAGCFWGVEKFFRKEFGSALASTEVGYAGGDKSSPTYRQVCDGDTGHAEVVKLEFKKDAVDYASLVEFFFRIHDASTVDRQGNDVGTQYRSVIFYHTPEQKKVAEEVKDKVQKEHYPRTPIVTQIVPVGQYWSAEDYHQLYLEKNPSGYCNHRLRW
notes: full-length from cDNA, 163 aa, C-terminal 6xHis, pET-17b, E. coli BL21-AI, Ni-NTA
Km [3]: 2590 µM
Vmax [3]: 500 nmol/min/mg
kcat [3]: 0.155 s⁻¹
kcat/Km [3]: 59 M⁻¹ s⁻¹
